Measured values from patent US20080213836.
Changes are numbered by the printed parent chain. In names and notes the source's numbering stands.

Key:
[1] = molecular target: recombinant fusion protein of Medaka trypsinogen
human fibrinogen, P02671 = molecular target: T1, human fibrinogen, P02671
T1 chain 1: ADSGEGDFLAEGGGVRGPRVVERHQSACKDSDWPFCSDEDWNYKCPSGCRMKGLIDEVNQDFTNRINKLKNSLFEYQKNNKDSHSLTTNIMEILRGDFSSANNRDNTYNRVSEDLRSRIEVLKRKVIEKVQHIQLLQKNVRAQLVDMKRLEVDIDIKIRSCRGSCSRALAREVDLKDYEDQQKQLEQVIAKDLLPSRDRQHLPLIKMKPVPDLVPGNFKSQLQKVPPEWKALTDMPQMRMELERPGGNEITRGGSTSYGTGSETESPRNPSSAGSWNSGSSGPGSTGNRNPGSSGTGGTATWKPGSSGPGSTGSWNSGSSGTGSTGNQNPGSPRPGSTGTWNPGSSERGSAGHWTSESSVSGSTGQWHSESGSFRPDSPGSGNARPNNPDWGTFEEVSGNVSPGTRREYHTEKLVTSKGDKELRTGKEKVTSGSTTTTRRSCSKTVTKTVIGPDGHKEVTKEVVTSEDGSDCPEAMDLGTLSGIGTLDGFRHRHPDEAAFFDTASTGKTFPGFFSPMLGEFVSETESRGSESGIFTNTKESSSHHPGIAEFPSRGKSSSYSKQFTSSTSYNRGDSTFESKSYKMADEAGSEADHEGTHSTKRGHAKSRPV
T1 chain 2: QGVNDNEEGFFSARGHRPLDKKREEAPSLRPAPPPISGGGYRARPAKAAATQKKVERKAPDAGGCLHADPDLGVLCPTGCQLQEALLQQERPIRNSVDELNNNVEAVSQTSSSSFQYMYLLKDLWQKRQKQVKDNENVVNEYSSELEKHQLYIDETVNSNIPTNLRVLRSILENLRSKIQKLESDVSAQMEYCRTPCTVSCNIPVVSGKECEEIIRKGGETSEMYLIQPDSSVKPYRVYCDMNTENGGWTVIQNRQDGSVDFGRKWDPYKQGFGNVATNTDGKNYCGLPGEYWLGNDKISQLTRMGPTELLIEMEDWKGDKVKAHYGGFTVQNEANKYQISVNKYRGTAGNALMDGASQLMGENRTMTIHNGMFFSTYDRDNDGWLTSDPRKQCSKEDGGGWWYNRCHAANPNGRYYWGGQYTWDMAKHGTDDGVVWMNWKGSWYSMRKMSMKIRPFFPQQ
T1 chain 3: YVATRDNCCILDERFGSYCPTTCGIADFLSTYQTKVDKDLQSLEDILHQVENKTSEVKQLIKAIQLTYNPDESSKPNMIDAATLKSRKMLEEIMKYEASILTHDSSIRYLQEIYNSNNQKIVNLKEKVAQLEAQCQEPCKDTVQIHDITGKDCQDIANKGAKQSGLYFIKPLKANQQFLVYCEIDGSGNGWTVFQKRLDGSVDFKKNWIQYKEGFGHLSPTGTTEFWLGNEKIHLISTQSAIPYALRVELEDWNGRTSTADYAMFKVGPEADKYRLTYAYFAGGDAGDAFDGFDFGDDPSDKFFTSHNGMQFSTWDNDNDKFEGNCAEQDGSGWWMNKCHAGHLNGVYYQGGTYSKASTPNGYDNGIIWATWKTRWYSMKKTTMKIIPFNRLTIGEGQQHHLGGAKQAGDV

[2] = molecular target: Human plasma fibronectin, P02751
Chain of Human plasma fibronectin, P02751 (P02751 other isoform, or with tags, fused parts or gaps): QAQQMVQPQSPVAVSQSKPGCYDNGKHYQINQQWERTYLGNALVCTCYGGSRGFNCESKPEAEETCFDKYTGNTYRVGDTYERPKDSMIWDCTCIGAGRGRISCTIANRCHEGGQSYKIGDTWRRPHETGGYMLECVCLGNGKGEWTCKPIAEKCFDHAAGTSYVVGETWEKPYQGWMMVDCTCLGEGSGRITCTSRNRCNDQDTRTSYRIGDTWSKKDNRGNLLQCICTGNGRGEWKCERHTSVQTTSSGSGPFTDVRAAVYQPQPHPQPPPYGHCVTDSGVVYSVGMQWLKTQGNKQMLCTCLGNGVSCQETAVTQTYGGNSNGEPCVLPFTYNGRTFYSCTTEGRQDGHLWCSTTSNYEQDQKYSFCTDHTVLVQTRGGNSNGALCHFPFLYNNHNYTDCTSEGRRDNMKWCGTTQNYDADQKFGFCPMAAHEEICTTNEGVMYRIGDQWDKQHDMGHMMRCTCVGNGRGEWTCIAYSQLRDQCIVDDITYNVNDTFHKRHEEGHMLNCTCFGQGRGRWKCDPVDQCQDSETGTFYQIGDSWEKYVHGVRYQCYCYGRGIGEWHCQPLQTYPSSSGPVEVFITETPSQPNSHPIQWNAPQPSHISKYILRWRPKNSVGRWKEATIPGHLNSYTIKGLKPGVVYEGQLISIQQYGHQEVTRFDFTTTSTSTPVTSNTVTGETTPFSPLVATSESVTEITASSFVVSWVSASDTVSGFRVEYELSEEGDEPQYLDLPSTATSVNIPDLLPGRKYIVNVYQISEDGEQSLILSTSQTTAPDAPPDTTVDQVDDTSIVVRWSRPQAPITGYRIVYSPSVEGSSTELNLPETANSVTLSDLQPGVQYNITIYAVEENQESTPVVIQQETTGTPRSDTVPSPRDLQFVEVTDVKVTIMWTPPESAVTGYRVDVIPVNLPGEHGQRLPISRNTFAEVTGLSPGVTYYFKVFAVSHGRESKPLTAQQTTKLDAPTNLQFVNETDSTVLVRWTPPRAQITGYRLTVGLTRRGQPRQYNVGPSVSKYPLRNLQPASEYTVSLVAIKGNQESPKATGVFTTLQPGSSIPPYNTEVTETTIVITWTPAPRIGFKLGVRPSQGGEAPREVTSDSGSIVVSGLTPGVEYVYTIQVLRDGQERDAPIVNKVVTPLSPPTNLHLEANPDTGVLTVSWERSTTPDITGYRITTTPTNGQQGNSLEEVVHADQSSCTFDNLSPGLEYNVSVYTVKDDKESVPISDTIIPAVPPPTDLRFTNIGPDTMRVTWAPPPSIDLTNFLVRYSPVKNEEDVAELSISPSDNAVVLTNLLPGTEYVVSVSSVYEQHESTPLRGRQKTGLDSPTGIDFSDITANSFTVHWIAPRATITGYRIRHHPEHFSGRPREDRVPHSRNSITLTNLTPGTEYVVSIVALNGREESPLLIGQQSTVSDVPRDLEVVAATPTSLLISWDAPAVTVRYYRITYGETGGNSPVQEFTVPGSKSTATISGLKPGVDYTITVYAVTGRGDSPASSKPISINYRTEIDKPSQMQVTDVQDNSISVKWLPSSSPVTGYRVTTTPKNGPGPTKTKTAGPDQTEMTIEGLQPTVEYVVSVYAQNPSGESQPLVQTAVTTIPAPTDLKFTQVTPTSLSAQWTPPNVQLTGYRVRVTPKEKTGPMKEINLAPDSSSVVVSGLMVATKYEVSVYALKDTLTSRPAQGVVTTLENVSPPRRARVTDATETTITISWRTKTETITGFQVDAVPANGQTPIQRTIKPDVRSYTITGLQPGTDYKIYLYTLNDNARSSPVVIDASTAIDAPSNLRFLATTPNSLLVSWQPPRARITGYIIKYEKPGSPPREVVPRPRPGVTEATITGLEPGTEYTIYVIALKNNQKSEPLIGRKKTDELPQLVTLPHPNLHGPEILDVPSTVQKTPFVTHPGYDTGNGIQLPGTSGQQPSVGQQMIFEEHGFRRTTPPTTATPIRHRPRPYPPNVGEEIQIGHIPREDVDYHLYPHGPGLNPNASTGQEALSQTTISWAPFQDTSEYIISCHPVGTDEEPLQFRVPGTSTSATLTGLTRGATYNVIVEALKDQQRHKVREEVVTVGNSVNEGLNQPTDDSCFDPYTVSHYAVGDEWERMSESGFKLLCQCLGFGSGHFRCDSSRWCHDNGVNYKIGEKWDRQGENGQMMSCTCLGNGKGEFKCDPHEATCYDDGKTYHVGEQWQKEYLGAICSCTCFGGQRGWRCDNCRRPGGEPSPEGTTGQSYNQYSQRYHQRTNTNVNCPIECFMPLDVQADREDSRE

Z-Phe-Arg-MCA = molecular target: T2, Z-Phe-Arg-MCA
T2 chain: FR

Pro-Phe-Arg-MCA = molecular target: T3, Pro-Phe-Arg-MCA
T3 chain: PFR

[3] = molecular target: T4, human high-molecular-weight (HMW) kininogen, P01042
T4 chain: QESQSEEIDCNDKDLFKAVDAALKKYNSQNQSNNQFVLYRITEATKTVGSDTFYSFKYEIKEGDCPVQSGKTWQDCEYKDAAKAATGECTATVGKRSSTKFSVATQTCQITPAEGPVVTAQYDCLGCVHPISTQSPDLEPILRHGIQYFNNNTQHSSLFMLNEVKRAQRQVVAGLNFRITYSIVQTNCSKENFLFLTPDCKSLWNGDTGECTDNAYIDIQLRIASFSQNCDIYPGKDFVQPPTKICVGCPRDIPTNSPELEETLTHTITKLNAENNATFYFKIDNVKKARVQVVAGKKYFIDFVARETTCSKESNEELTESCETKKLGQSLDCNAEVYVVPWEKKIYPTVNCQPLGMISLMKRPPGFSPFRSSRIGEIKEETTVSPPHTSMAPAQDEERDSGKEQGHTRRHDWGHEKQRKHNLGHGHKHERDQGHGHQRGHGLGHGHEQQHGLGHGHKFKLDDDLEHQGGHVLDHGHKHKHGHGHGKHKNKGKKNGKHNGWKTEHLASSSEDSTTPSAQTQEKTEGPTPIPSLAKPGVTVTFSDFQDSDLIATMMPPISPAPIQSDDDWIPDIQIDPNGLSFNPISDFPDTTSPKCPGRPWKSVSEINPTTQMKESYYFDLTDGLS

[4] = molecular target: T5, Gly-Asp-Asp-Asp-Asp-Lys-β-naphthylamide
T5 chain: GDDDDK

[5] = molecular target: T6, Boc-Glu(OBzl)-Ala-Arg-MCA
T6 chain: EAR

B1: Medaka EP-1 serine protease domain mutant K63R (protein)
chain: VVGGVNAEKGAWPWMVSLHWRGRHGCGASLIGRDWLLTAAHCVYGRNTHLQYWSAVLGLHAQSSMNSQEVQIRQVDRIIINKNYNRRTKEADIAMMHLQQPVNFTEWVLPVCLASEDQHFPAGRRCFIAGWGRDAEGGSLPDILQEAEVPLVDQDECQRLLPEYTFTSSMLCAGYPEGGVDSCQGDSGGPLMCLEDARWTLIGVTSFGVGCGRPERPGAYARVSAFTSWIAETRRSSFSDLD
activation of trypsinogen [1]: K63R converted to trypsin as fast as the wild type enzyme
conversion of trypsinogen to active enzyme [1]: A total of 12 mutants could convert the recombinant Medaka trypsinogen to its active enzyme (data not shown)
nonspecific proteolytic activity (SDS-PAGE) (human fibrinogen, P02671): The mutant proteases had lower nonspecific proteolytic activity for ... human fibrinogen
hydrolysis (mouse laminin): Neither human fibronectin nor laminin was hydrolyzed by the mutants (data not shown)
hydrolysis [2]: Neither human fibronectin nor laminin was hydrolyzed by the mutants (data not shown)
Km (Z-Phe-Arg-MCA): 100 µM
enzyme activity against wild-type (Z-Phe-Arg-MCA): consistently resulted in reduced enzyme activity for synthetic peptide substrates
kcat (Z-Phe-Arg-MCA): 0.0233 s⁻¹
kcat/Km (mM^-1 · min^-1) (Z-Phe-Arg-MCA): 14
Km (Pro-Phe-Arg-MCA): 1100 µM
enzyme activity against wild-type (Pro-Phe-Arg-MCA): consistently resulted in reduced enzyme activity for synthetic peptide substrates
kcat (Pro-Phe-Arg-MCA): 0.183 s⁻¹
kcat/Km (mM^-1 · min^-1) (Pro-Phe-Arg-MCA): 10
nonspecific proteolytic activity (SDS-PAGE) [3]: The mutant proteases had lower nonspecific proteolytic activity for human HMW kininogen
Km [4]: 200 µM
enzyme activity against wild-type [4]: consistently resulted in reduced enzyme activity for synthetic peptide substrates
kcat [4]: 3.5 s⁻¹
kcat/Km (mM^-1 · min^-1) [4]: 1100
Km [5]: 1200 µM
enzyme activity against wild-type [5]: consistently resulted in reduced enzyme activity for synthetic peptide substrates
kcat [5]: 0.2 s⁻¹
kcat/Km (mM^-1 · min^-1) [5]: 10

B2: Medaka EP-1 serine protease domain mutant T105E (protein)
chain: B1 chain with R46K, T88E
activation of trypsinogen [1]: the other mutants activated trypsinogen at a reduced rate
conversion of trypsinogen to active enzyme [1]: A total of 12 mutants could convert the recombinant Medaka trypsinogen to its active enzyme (data not shown)
nonspecific proteolytic activity (SDS-PAGE) (human fibrinogen, P02671): The mutant proteases had lower nonspecific proteolytic activity for ... human fibrinogen
hydrolysis (mouse laminin): Neither human fibronectin nor laminin was hydrolyzed by the mutants (data not shown)
hydrolysis [2]: Neither human fibronectin nor laminin was hydrolyzed by the mutants (data not shown)
Km (Z-Phe-Arg-MCA): 100 µM
enzyme activity against wild-type (Z-Phe-Arg-MCA): consistently resulted in reduced enzyme activity for synthetic peptide substrates
kcat (Z-Phe-Arg-MCA): 0.0333 s⁻¹
kcat/Km (mM^-1 · min^-1) (Z-Phe-Arg-MCA): 20
Km (Pro-Phe-Arg-MCA): 1300 µM
enzyme activity against wild-type (Pro-Phe-Arg-MCA): consistently resulted in reduced enzyme activity for synthetic peptide substrates
kcat (Pro-Phe-Arg-MCA): 0.267 s⁻¹
kcat/Km (mM^-1 · min^-1) (Pro-Phe-Arg-MCA): 12
nonspecific proteolytic activity (SDS-PAGE) [3]: The mutant proteases had lower nonspecific proteolytic activity for human HMW kininogen
Km [4]: 400 µM
enzyme activity against wild-type [4]: consistently resulted in reduced enzyme activity for synthetic peptide substrates
kcat [4]: 4.33 s⁻¹
kcat/Km (mM^-1 · min^-1) [4]: 650
Km [5]: 1300 µM
enzyme activity against wild-type [5]: consistently resulted in reduced enzyme activity for synthetic peptide substrates
kcat [5]: 0.183 s⁻¹
kcat/Km (mM^-1 · min^-1) [5]: 9
